Results reported in article PMC8532158.

Key:
Test in all cases: yeast surface display affinity sorting with deep sequencing (deep mutational scanning); BPTI single and double mutant library on yeast, sorted by FACS into four affinity gates (HI, WT, SL, LO) for each protease; NGS enrichments converted into ΔΔG_bind by a normalization formula fitted on ΔΔG_bind values of purified proteins
[1] = target: BPTI A16S displayed on the yeast surface (bovine)
[2] = target: BPTI K15A displayed on the yeast surface (bovine)
[3] = target: BPTI K15R displayed on the yeast surface (bovine)

ΔΔG bind against BPTI WT [1]: 18.8 kJ/mol | ΔΔG bind against BPTI WT [2]: 46.4 kJ/mol | ΔΔG bind against BPTI WT [3]: -5.86 kJ/mol
Substance: bovine trypsin (enzyme)
